# Results reported in patent US20070141716.
# How the values were obtained:
# [1] = target: UbcH5c, P61077
# [2] = target: UBC13/Uev1 heterodimer, P61088
# Sequence of UBC13/Uev1 heterodimer, P61088 (P61088 whole entry, chain 1 of 2): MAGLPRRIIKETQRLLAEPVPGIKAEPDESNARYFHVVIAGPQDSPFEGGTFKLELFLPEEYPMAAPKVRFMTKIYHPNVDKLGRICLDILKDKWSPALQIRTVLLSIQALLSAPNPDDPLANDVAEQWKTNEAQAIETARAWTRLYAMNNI
# Sequence of UBC13/Uev1 heterodimer, P61088 (chain, as listed by the source, chain 2 of 2): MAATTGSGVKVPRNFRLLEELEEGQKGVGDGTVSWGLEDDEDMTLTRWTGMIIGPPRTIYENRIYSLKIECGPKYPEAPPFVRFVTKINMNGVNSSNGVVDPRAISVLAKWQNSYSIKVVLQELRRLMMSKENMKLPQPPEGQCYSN
# Sequence of UbcH5c, P61077 (P61077 whole entry): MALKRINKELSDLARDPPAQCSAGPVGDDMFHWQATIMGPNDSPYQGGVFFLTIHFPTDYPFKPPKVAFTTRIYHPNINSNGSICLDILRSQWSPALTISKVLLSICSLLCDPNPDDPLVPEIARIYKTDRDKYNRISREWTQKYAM
protein,measurement,setting,value
glutathione-S-transferase protein (GST)-PEM-3-like fusion protein (protein) MMAAMLSHAYGPGGCGAAAAALNGEQAALLRRKSVNTTECVPVPSSEHVAEIVGRQGCKIKALRAKTNTYIKTPVRGEEPIFVVTGRKEDVAMAKREILSAAEHFSMIRASRNKNGPALGGLSCSPNLPGQTTVQVRVPYRVVGLVVGPKGATIKRIQQQTHTYIVTPSRDKEPVFEVTGMPENVDRAREEIEMHIAMRTGNYIELNEENDFHYNGTDVSFEGGTLGSAWLSSNPVPPSRARMISNYRNDSSSSLGSGSTDSYFGSNRLADFSPTSPFSTGNFWFGDTLPSVGSEDLAVDSPAFDSLPTSAQTIWTPFEPVNPLSGFGSDPSGNMKTQRRGSQPSTPRLSPTFPESIEHPLARRVRSDPPSTGNHVGLPIYIPAFSNGTNSYSSSNGGSTSSSPPESRRKHDCVICFENEVIAALVPCGHNLFCMECANKICEKRTPSCPVCQTAVTQAIQIHS,ubiquitin ligase activity by TR-FRET,[1],PEM-3-like acts as an E3 ligase with both UbcH5 and UBC13/Uev1
same,"free polyubiquitin chain formation, immunoblot",[2],free polyubiquitin chains were only generated in the presence of UBC13/Uev1 heterodimer and a complete ubiquitin conjugation system
same,"in vitro self-ubiquitination, anti-ubiquitin immunoblot",[2],high molecular weight PEM-3-like-ubiquitin adducts were detected by anti-ubiquitin immunoblot analysis
same,ubiquitin ligase activity by TR-FRET,[2],PEM-3-like acts as an E3 ligase with both UbcH5 and UBC13/Uev1
